# Measurements from patent US20240287163A1 (Chugai, published 2024).
# Numbering of substitutions follows the chain as printed.
# B1: COS0637pHv17-G1A3FcgSil+LowpI (antibody, V domains shown)
# VH: QVQLVESGGGVVQPGRSLRLSCAASGFTFSAYAMNWIRQPPGKGLEWIGLIYGSGHEFYASWAEERVTISVDTSKNQFSLKLSSVTAADTAVYYCARGRSKNYNSDFHLWGQGTLVTVSS
# VL: DIQMTQSPSSLSASVGDRVTITCQAHEILHDKKNLAWYQQKPGQPPKLLIYGASQRESGVPSRFSGSGSGTDFTLTISSLQPEDFATYYCHGEFPHSSADLNHFGQGTKVEIKR
# notes: VH 24, VL 55, CH 45, CL 23
# B2: COS0637pHv21-G1A3FcgSil+LowpI (antibody, V domains shown)
# VH: B1 VH
# VL: B1 VL with G52S, Q55I, R56L, P95S, S97G, A99G
# notes: VH 24, VL 47, CH 45, CL 23
# B3: COS0637pHv8-G1A3FcgSil+LowpI (antibody)
# heavy: QVQLVESGGGVVQPGRSLRLSCAASGFTFSAYAMNWIRQPPGKGLEWIGLIYGSGHEFYASWAEERVTISVDTSKNQFSLKLSSVTAADTAVYYCARGRSKNYNSDFHLWGQGTLVTVSSASTKGPSVFPLAPSSRSTSESTAALGCLVKDYFPEPVTVSWNSGALTSGVHTFPAVLQSSGLYSLSSVVTVPSSSLGTQTYICNVNHKPSNTKVDKRVEPKSCDKTHTCPPCPAPELRRGPSVFLFPPKPKDTLMISRTPEVTCVVVDVSQEDPEVQFNWYVDGVEVHNAKTKPREEQYNSTYRVVSVLTVLHQDWLNGKEYKCKVSNKALPAPIEKTISKAKGQPREPQVYTLPPSQEEMTKNQVSLTCLVKGFYPSDIAVEWESNGQPENNYKTTPPVLDSDGSFFLYSKLTVDKSRWQEGNVFSCSVLHEALHAHTTRKELSLSP
# light: DIQMTQSPSSLSASVGDRVTITCQANQILHDKKNLAWYQQKPGQPPKLLIYGASTLESGVPSRFSGSGSGTDFTLTISSLQPEDFATYYCHGEFSYSSADLNTFGQGTKVEIKRTVAAPSVFIFPPSDEQLKSGTASVVCLLNNFYPREAKVQWKVDNALQSGNSQESVTEQDSKDSTYSLSSTLTLSKADYEKHKVYACEVTHQGLSSPVTKSFNRGEC
# notes: built from VH+CH and VL+CL
# B4: COS0637pHv15-G1A3FcgSil+LowpI (antibody, V domains shown)
# VH: B1 VH
# VL: B1 VL with H26N, Q55T, R56L, P95S, H96Y, S97H, H103T
# notes: VH 24, VL 59, CH 45 (G1A3FcgSil+LowpI), CL 23
# B5: COS0637pHv16-G1A3FcgSil+LowpI (antibody, V domains shown)
# VH: B1 VH with A33T
# VL: B1 VL
# notes: VH 36, VL 55, CH 45, CL 23
# B6: COS0637pHv8-TT91R (antibody, human IgG1)
# heavy: QVQLVESGGGVVQPGRSLRLSCAASGFTFSAYAMNWIRQPPGKGLEWIGLIYGSGHEFYASWAEERVTISVDTSKNQFSLKLSSVTAADTAVYYCARGRSKNYNSDFHLWGQGTLVTVSSASTKGPSVFPLAPSSKSTSGGTAALGCLVKDYFPEPVTVSWNSGALTSGVHTFPAVLQSSGLYSLSSVVTVPSSSLGTQTYICNVNHKPSNTKVDKRVEPKSCDKTHTCPPCPAPEYLGGDSVFLFPPKPKDVLMISRTPEVTCVVIDVSHEDPEVKFNWYVDGVEVHNAKTKPREEQYNSTYRVVSVLPVLHRDWLNGKEYKCKVSNKALPKPIEKTISKAKGQRREPQVYTLPPSREEMTKNQVSLTCLVKGFYPSDIAVEWESNGQPENNYKTTPPVLDSDGSFFLYSKLTVDKSRWQQGNVFSCSVLHEALHAHTTRKELSLSP
# light: B3 light
# notes: also called COS637pHv8-TT91R
# Key:
# [1] = target: T1, recombinant human C1r2s2 tetramer (human, UniProt P09871 16-688; P00736 18-705); assay: SPR (Biacore T200), 37 C; ratio of KD at pH 6.0 to KD at pH 7.4
# T1 construct: C1s and C1r co-expressed in HEK293 and purified from the supernatant as tetramer; also called hC1r2s2
# T1 chain 1: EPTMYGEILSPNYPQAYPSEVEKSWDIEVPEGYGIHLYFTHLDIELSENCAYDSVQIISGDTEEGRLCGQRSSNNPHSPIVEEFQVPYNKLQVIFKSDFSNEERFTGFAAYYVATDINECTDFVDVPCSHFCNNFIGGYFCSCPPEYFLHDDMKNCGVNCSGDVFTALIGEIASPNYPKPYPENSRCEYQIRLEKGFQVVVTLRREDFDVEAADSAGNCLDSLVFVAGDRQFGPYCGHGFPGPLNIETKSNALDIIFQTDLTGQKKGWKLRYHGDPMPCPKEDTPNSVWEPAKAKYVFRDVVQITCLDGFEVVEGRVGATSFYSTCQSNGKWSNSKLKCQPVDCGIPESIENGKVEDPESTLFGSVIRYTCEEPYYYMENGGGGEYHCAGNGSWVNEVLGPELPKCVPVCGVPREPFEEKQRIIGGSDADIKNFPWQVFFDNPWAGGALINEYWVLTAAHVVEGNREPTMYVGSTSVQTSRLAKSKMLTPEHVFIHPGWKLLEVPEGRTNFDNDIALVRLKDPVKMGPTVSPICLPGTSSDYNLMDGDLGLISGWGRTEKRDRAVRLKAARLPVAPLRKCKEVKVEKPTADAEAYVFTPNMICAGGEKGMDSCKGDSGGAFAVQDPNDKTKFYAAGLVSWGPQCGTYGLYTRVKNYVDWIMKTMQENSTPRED
# T1 chain 2: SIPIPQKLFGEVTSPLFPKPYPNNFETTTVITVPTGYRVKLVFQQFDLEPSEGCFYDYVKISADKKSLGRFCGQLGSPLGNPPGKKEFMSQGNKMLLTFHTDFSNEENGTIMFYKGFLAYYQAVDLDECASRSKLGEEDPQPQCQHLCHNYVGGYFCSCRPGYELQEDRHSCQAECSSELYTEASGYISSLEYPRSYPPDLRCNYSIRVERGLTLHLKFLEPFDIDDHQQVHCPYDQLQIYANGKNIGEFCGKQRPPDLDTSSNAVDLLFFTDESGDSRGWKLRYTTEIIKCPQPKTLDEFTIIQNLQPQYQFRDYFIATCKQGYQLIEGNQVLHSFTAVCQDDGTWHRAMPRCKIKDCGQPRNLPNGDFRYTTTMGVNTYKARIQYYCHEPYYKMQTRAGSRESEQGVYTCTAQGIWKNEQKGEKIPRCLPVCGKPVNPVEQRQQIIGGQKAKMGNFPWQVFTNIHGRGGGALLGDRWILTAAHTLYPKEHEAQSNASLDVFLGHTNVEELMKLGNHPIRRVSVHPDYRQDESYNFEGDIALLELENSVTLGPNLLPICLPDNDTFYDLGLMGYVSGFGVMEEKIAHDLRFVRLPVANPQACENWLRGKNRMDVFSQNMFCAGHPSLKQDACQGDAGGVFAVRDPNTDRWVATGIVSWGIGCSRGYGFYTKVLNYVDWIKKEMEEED
# Procedure: (§1) The binding property of each sample at pH7.4 and pH6.0 was determined at 37° C. using BIACORE® T200 instrument (Cytiva). […] 20 mM ACES, 150 mM NaCl, 1.2 mM CaCl₂, 1 mg/mL BSA (not containing IgG), 1 mg/mL CMD, 0.05% Tween® 20, 0.005 w/v % NaN₃, pH7.4 or pH6.0 buffer was used as the running buffer. […] The antibody solution was added thereto at 30 μL/min for 120 seconds, the running buffer was then added at 30 μL/min for 180 seconds, and the dissociation constant (KD) of each antibody for hC1r2s2 and cyC1r2s2 was calculated. […] The sensor surface was regenerated every cycle, using 3 M MgCl2 (prepared in-house). The KD value was calculated using BIACORE® T200 evaluation software version 2.0 (Cytiva). The binding strengths under each pH condition were compared by dividing the KD value at pH6.0 with the KD value at pH7.4.
# [2] = target: T2, recombinant cynomolgus C1r2s2 tetramer (cynomolgus monkey, limits assumed); assay: as above
# T2 construct: also called cyC1r2s2; monkey C1r2s2
# T2 chain 1: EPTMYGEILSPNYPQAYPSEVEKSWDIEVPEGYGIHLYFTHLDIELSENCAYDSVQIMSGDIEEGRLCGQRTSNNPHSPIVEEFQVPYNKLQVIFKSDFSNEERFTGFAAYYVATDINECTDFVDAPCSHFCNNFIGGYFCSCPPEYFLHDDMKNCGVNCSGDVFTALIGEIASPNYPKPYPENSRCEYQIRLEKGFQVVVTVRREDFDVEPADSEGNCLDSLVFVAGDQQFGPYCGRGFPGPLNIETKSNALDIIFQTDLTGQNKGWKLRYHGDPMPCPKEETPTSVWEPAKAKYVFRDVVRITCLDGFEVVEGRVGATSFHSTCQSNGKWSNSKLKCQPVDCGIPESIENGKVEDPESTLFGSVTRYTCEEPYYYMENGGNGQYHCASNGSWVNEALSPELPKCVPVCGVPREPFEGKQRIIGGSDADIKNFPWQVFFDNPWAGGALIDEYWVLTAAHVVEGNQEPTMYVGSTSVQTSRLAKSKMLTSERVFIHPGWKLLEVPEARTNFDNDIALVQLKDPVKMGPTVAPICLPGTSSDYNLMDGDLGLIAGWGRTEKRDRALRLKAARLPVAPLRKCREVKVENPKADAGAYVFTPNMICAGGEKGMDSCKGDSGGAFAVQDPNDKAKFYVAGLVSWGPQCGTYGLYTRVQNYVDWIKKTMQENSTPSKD
# T2 chain 2: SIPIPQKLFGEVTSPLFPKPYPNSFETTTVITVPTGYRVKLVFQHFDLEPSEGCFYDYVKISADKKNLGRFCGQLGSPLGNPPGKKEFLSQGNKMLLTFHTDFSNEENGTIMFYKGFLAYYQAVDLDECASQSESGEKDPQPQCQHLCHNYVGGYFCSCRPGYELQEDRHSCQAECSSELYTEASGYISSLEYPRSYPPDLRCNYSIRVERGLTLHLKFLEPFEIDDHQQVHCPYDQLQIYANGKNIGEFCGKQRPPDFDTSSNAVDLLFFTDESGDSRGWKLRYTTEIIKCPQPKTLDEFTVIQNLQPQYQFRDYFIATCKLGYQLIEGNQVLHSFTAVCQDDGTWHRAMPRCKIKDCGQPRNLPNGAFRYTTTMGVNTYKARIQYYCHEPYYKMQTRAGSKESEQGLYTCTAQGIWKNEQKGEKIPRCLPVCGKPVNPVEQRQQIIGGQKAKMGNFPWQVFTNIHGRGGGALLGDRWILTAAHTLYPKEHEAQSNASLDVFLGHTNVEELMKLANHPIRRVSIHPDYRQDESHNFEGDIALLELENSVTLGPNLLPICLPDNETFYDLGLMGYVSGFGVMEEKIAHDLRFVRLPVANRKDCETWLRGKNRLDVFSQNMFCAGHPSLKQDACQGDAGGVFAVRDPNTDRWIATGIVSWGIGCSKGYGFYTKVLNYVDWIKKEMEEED
# Procedure: as §1
# [3] = target: T1, recombinant human C1r2s2 tetramer; assay: SPR (Biacore T200), 37 C, pH 6.0; hC1r2s2 captured by IPN009, antibody as analyte
# Procedure: as §1
# [4] = target: T1, recombinant human C1r2s2 tetramer; assay: SPR (Biacore T200), 37 C, pH 7.4; hC1r2s2 captured by IPN009, antibody as analyte
# Procedure: as §1
# [5] = target: T2, recombinant cynomolgus C1r2s2 tetramer; assay: SPR (Biacore T200), 37 C, pH 6.0; cyC1r2s2 captured by IPN009, antibody as analyte
# Procedure: as §1
# [6] = target: T2, recombinant cynomolgus C1r2s2 tetramer; assay: SPR (Biacore T200), 37 C, pH 7.4; cyC1r2s2 captured by IPN009, antibody as analyte
# Procedure: as §1
Binder,KD (pH 6.0)/KD (pH 7.4) [1],KD (pH 6.0)/KD (pH 7.4) [2],Kd [3] [nM],Kd [4] [nM],Kd [5] [nM],Kd [6] [nM]
B1,143,421,32.9,0.23,106,0.252
B2,120,182,31.3,0.26,62.9,0.346
B3,71,83,19.3,0.272,30.3,0.365
B4,797,226,318,0.399,111,0.492
B5,161,465,29.2,0.181,91.2,0.196
B6,50.2,67.5,12.5,0.249,23.3,0.345
